Test results from the supplement of paper PMC10567573.

B1: TTC32 (parent)
chain: YSAYIRRCACAASSDESPGSKCSP

Variants of: B1
Experiment: protein stability index of a GFP-peptide fusion (GPS, HEK-293T) (PSI 1-6); higher = more stable
Settings: c terminus: a fixed tail appended
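Also: lentivirally expressed fusions sorted by FACS into six bins by GFP to DsRed ratio, PSI derived from sequencing read proportions per bin multiplied by bin number.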

Compared with YSAYIRRCACAASSDESPGSGCSP [K21G], YSAYIRRCACAASSDESPGSHCSP [K21H] is lower in protein stability index: 2.02 for the first, 1.97 for the second.

Compared with YSAYIRRCACAASSDESPGSPCSP [K21P], YSAYIRRCACAASSDESPGSLCSP [K21L] is lower in protein stability index: 2.93 for the first, 1.95 for the second.

First: YSAYIRRCACAASSDESPGSFCSP [K21F]
Second: YSAYIRRCACAASSDESPGSMCSP [K21M]
The protein stability index of the first is lower: 2.22 for the first, 3.54 for the second.

Going from YSAYIRRCACAASSDESPGSECSP [K21E] to YSAYIRRCACAASSDESPGSICSP [K21I], the protein stability index falls from 2.3 to 1.86.

First: YSAYIRRCACAASSDESPGSNCSP [K21N]
Second: YSAYIRRCACAASSDESPGSCCSP [K21C]
The protein stability index of the first is lower: 2.11 for the first, 2.37 for the second.

First: YSAYIRRCACAASSDESPGSACSP [K21A]
Second: YSAYIRRCACAASSDESPGSDCSP [K21D]
The protein stability index of the first is higher: 2.23 for the first, 1.92 for the second.

Going from YSAYIRRCACSASSDESPGSKCSP [A11S] to YSAYIRRCACYASSDESPGSKCSP [A11Y], the protein stability index rises from 1.95 to 2.36.

First: YSAYIRRCACVASSDESPGSKCSP [A11V]
Second: YSAYIRRCACWASSDESPGSKCSP [A11W]
The protein stability index of the first is higher: 2.61 for the first, 2.04 for the second.

Going from YSAYIRRCACTASSDESPGSKCSP [A11T] to YSAYIRRCACAASSDQSPGSKCSP [E16Q], the protein stability index rises from 1.94 to 2.18.

Going from YSAYIRRCACAASSDKSPGSKCSP [E16K] to YSAYIRRCACAASSDPSPGSKCSP [E16P], the protein stability index rises from 1.53 to 2.01.

First: YSAYIRRCACAASSDYSPGSKCSP [E16Y]
Second: YSAYIRRCACAASSDWSPGSKCSP [E16W]
The protein stability index of the first is lower: 2.36 for the first, 3.48 for the second.

Going from YSAYIRRCACAASSDISPGSKCSP [E16I] to YSAYIRRCACAASSDASPGSKCSP [E16A], the protein stability index falls from 1.82 to 1.44.

First: YSAYIRRCACAASSDGSPGSKCSP [E16G]
Second: YSAYIRRCACAASSDHSPGSKCSP [E16H]
The protein stability index of the first is lower: 1.8 for the first, 2.36 for the second.

Compared with YSAYIRRCACAASSDDSPGSKCSP [E16D], YSAYIRRCACAASSDCSPGSKCSP [E16C] is lower in protein stability index: 2.06 for the first, 1.83 for the second.

First: YSAYIRRCACAASSDMSPGSKCSP [E16M]
Second: YSAYIRRCACAASSDRSPGSKCSP [E16R]
The protein stability index of the first is higher: 2.42 for the first, 1.62 for the second.

Going from YSAYIRRCACAASSDNSPGSKCSP [E16N] to YSAYIRRCACAASSDFSPGSKCSP [E16F], the protein stability index rises from 1.92 to 2.68.

First: YSAYIRRCACAASSDLSPGSKCSP [E16L]
Second: YSAYIRRCACAASSDVSPGSKCSP [E16V]
The protein stability index of the first is lower: 1.58 for the first, 1.81 for the second.

Compared with YSAYIRRCACAASSDTSPGSKCSP [E16T], YSAYIRRCACAASSDSSPGSKCSP [E16S] is lower in protein stability index: 2.22 for the first, 1.94 for the second.

Going from YSAYIRRCACAASQDESPGSKCSP [S14Q] to YSAYIRRCACAASIDESPGSKCSP [S14I], the protein stability index falls from 2.19 to 1.96.

First: YSAYIRRCACAASRDESPGSKCSP [S14R]
Second: YSAYIRRCACAASEDESPGSKCSP [S14E]
The protein stability index of the first is lower: 2.03 for the first, 2.65 for the second.

Going from YSAYIRRCACAASPDESPGSKCSP [S14P] to YSAYIRRCACAASDDESPGSKCSP [S14D], the protein stability index rises from 2.29 to 2.38.

First: YSAYIRRCACAASHDESPGSKCSP [S14H]
Second: YSAYIRRCACAASADESPGSKCSP [S14A]
The protein stability index of the first is higher: 2.74 for the first, 2.16 for the second.

Going from YSAYIRRCACAASFDESPGSKCSP [S14F] to YSAYIRRCACAASGDESPGSKCSP [S14G], the protein stability index rises from 1.45 to 2.33.

Compared with YSAYIRRCACAASNDESPGSKCSP [S14N], YSAYIRRCACAASCDESPGSKCSP [S14C] is lower in protein stability index: 2.65 for the first, 2.18 for the second.

Going from YSAYIRRCACAASLDESPGSKCSP [S14L] to YSAYIRRCACAASTDESPGSKCSP [S14T], the protein stability index falls from 2 to 1.93.

Compared with YSAYIRRCACAASYDESPGSKCSP [S14Y], YSAYIRRCACAASKDESPGSKCSP [S14K] is higher in protein stability index: 1.88 for the first, 2.29 for the second.

Compared with YSAYIRRCACAASMDESPGSKCSP [S14M], YSAYIRRCACAASWDESPGSKCSP [S14W] is higher in protein stability index: 1.4 for the first, 1.92 for the second.

First: YSAYIRRCACAASVDESPGSKCSP [S14V]
Second: YSAYIRRCACAATSDESPGSKCSP [S13T]
The protein stability index of the first is lower: 1.53 for the first, 2.1 for the second.

Compared with YSAYIRRCACAARSDESPGSKCSP [S13R], YSAYIRRCACAANSDESPGSKCSP [S13N] is lower in protein stability index: 2.21 for the first, 1.87 for the second.

Compared with YSAYIRRCACAAKSDESPGSKCSP [S13K], YSAYIRRCACAAMSDESPGSKCSP [S13M] is lower in protein stability index: 2.28 for the first, 1.55 for the second.

Compared with YSAYIRRCACAAASDESPGSKCSP [S13A], YSAYIRRCACAAWSDESPGSKCSP [S13W] is lower in protein stability index: 2.07 for the first, 1.98 for the second.

Going from YSAYIRRCACAAISDESPGSKCSP [S13I] to YSAYIRRCACAAHSDESPGSKCSP [S13H], the protein stability index rises from 2 to 2.1.

First: YSAYIRRCACAAPSDESPGSKCSP [S13P]
Second: YSAYIRRCACAAFSDESPGSKCSP [S13F]
The protein stability index of the first is lower: 1.89 for the first, 2.08 for the second.

Going from YSAYIRRCACAALSDESPGSKCSP [S13L] to YSAYIRRCACAADSDESPGSKCSP [S13D], the protein stability index rises from 1.69 to 2.62.

Compared with YSAYIRRCACAAGSDESPGSKCSP [S13G], YSAYIRRCACAAVSDESPGSKCSP [S13V] is lower in protein stability index: 2.57 for the first, 1.49 for the second.

Going from YSAYIRRCACAAESDESPGSKCSP [S13E] to YSAYIRRCACAAYSDESPGSKCSP [S13Y], the protein stability index rises from 2.03 to 2.13.

First: YSAYIRRCACAAQSDESPGSKCSP [S13Q]
Second: YSAYIRRCACAACSDESPGSKCSP [S13C]
The protein stability index of the first is lower: 1.96 for the first, 2.96 for the second.

Going from YSAYIRRCACAASSDEIPGSKCSP [S17I] to YSAYIRRCACAASSDETPGSKCSP [S17T], the protein stability index falls from 2.66 to 2.37.

Compared with YSAYIRRCACAASSDEYPGSKCSP [S17Y], YSAYIRRCACAASSDERPGSKCSP [S17R] is higher in protein stability index: 1.68 for the first, 2.28 for the second.

Compared with YSAYIRRCACAASSDEVPGSKCSP [S17V], YSAYIRRCACAASSDEWPGSKCSP [S17W] is lower in protein stability index: 2.02 for the first, 1.78 for the second.

Compared with YSAYIRRCACAASSDEAPGSKCSP [S17A], YSAYIRRCACAASSDEDPGSKCSP [S17D] is lower in protein stability index: 2.17 for the first, 2.05 for the second.

Going from YSAYIRRCACAASSDECPGSKCSP [S17C] to YSAYIRRCACAASSDEHPGSKCSP [S17H], the protein stability index falls from 2.29 to 1.85.

Going from YSAYIRRCACAASSDELPGSKCSP [S17L] to YSAYIRRCACAASSDEFPGSKCSP [S17F], the protein stability index rises from 1.78 to 1.85.

Going from YSAYIRRCACAASSDEQPGSKCSP [S17Q] to YSAYIRRCACAASSDEMPGSKCSP [S17M], the protein stability index rises from 1.96 to 2.2.

Compared with YSAYIRRCACAASSDEKPGSKCSP [S17K], YSAYIRRCACAASSDENPGSKCSP [S17N] is higher in protein stability index: 1.94 for the first, 2.22 for the second.

Going from YSAYIRRCACAASSDEEPGSKCSP [S17E] to YSAYIRRCACAASSDEGPGSKCSP [S17G], the protein stability index falls from 2.38 to 2.08.

Compared with YSAYIRRCACAASSDEPPGSKCSP [S17P], YSAYIRRCACAASSDESEGSKCSP [P18E] is lower in protein stability index: 2.44 for the first, 2.36 for the second.
